These results are taken from patent publication US12600782 (BIOTHEUS, dated 2026).

Changes are numbered by the printed parent chain.

Broadly, the Kd is the constant that tells how readily two partners part at equilibrium. High values mean weaker binding, low ones tighter binding. Usually koff stands for a measure of how fast the partners let go of each other. The term kon denotes a measure of how fast the partners come together. The low end stands for slower complex formation, the high end for faster complex formation. The term EC50 (read off the curve) denotes the concentration giving half of the maximal effect. A lower EC50 (read off the curve) goes with an effect from little substance.

B1: D-Ye-22 (antibody, V domains shown)
VH: QVQLQESGGGLVQAGDSLRLSCIGSRRTFTMAWFRQAPGKEREFVAGIWGPADHTIYANSVKGRFACSRDDSTNTIFLQMNSLELEDTALYLCAAADSSGDDFEYWGQGTQVTVSS
notes: Anti-PD-L2 heavy chain antibody: VHH linked to human IgG1 (LALA) Fc; the junction is not described
B2: D-Na-58 (antibody, V domains shown)
VH: QVQLVESGGGLVQAGGSLTLSCTASGRTFSSYAMAWFRQAPGKERELLVTISRSGSTTYYLDSVKGRFTISRDNAKNTVYLQMNSLKPEDTAVYYCAAKRSLQDEVYYWGQGTQVTVSS
notes: as for B1
B3: D-Ye-31 (antibody, V domains shown)
VH: QVQLQESGGGLVQAGGSLGLSCAASGRTFSSMTIGWFRQTPGKEREFVAGIGWSTSKTVYKDSVKGRFTISTDNAKKTVYLQMNNLKPEDTAVYYCAADSMNRGQFDYWGQGTQVTVSS
notes: as for B1
B4: D-Ye-10 (antibody, V domains shown)
VH: B3 VH with G16A, G19R, A24S, A98E
notes: as for B1
B5: D-Na-64 (antibody, V domains shown)
VH: B3 VH with Q1E, Q5V, A14P, G19R
notes: as for B1
B6: D-Na-78 (antibody, V domains shown)
VH: QVQLVESGGGLVQAGGSLRLSCEASGVISINYAMAWFRQAPGKEREFVAAISRFGVTTSYADSVKDRFSIGITRDNAKDTMYLQTKSLKPEDTAVYYCAANSRILSRTAKDYDYWGQGTQVTVSS
notes: as for B1
B7: D-Ye-29 (antibody, V domains shown)
VH: QVQLQESGGGLVQPGGSLRLSCAASGSEFSFIPTGWYRQTPGKQRDLVAVFTSGGLTNYADSVKGRFTISRNNTKNIVYLQMNSLKPEDTAVYYCSGVPGPHYNGPTSGINYWGQGTQVTVSS
notes: as for B1
B8: D-Na-87 (antibody, V domains shown)
VH: QVQLVESGGGLVQPGGSLRLSCAASGFAFDAYAMTWVRQAPGKGLEFLSRIYSHGSKIIYAGSVKGRFTIFRDNAKNTVYLQMNSLKPEDTAVYYCAAGPDNIPTTGEKYDFWGQGTQVTVSS
notes: as for B1
B9: D-Na-80 (antibody, V domains shown)
VH: EVQLVESGGGLVQAGGSLRLSCAVSGVSFINYAMGWFRQAPGKEREFVAAISRFGGTTSYADSVKDRFSITTDTKDTVYLQTNSLKPEDTAVYYCAANSRILSRTAKDYDYWGQGTQVTVSS
notes: as for B1
B10: D-Na-89 (antibody, V domains shown)
VH: QVQLVESGGGLVQAGGSLRLSCAASGLTFINYAMGWFRQAPGKEREFVAAISWAGGTTSYADSVKDRFSITRDSAKDTVYLQTNSLKPEDTAVYYCAANSRILSRTAKDYDYWGQGTEVTVSS
notes: as for B1
B11: D-Na-90 (antibody, V domains shown)
VH: B10 VH with E118Q
notes: as for B1
B12: D-Na-67 (antibody, V domains shown)
VH: QVQLVESGGGLVQAGGSLRLSCAASGGLTFINYAMGWFRQAPGKEREFVAAISRFGGTTSYADSVKDRFSITRDVAKDTVYLQTNSLKPEDTAVYYCAANSRILSRTAADYDYWGQGTQVTVSS
notes: as for B1
B13: D-Ye-32 (antibody, V domains shown)
VH: QVQLQESGGGLVQAGGSLRLSCAASGSVGSINAMAWFRQAPGKQRDVVAHMPSGGSTHYADSVKGRFTVSRDNAKNTVYLQMNSLKAEDTAVYYCWAAGLGWGQGTQVTVSS
notes: as for B1
B14: K-Yr-13&14-16 (antibody, V domains shown)
VH: EVQLVESGGGLVQAGGSLRLSCAASTRTFITYAMGWFRQAPGKEREFVASINWSGASTYYADSVKGRFTISRHNAKNTVYLQMNSLKPEDTAVYYCAAALSAVVVTQILDYDYWGQGTLVTVSS
notes: Anti-PD-L1 heavy chain antibody: VHH linked to human IgG1 (LALA) Fc; the junction is not described
B15: K-Yr-13&14-09 (antibody, V domains shown)
VH: QVQLVESGGGLVKAGDSLRLSCAASGRTFTIYAIGWFRQAPGKEREFVATINWSGSMTNYTDSVKGRFTISRDNAKNTVYLQMNSLKPDDTAIYYCAAYVGATISTAHSRYDYWGQGTLVTVSA
notes: as for B14
B16: HZ-D-Ye-29-3 (antibody, V domains shown)
VH: B7 VH with Q1E, Q5L, T40A, D46E, N72D, T74S, I77T, K86R, P87A
notes: Humanized anti-PD-L2 heavy chain antibody: VHH linked to human IgG1 (LALA) Fc; the junction is not described

One assay concerns the target T1, human PD-L2 protein (purchased from AcroBiosystems) (human, UniProt Q9BQ51 20-219, limits assumed, biotinylated in the blocking assays).
T1 construct: Bought soluble protein; also called PD-L2 antigen; biotinylated human PD-L2 protein
T1 sequence (looked up): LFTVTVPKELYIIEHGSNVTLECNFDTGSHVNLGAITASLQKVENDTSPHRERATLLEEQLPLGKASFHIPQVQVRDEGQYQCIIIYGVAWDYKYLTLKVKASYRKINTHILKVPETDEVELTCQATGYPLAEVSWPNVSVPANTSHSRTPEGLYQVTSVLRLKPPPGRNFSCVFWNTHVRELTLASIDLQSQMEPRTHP
The assay is described as follows: BLI (ForteBio), antibody on AHQ sensor, 100 nM PD-L2 antigen, 1:1 model. Here is the method:
(§1) ForteBio affinity determination was carried out according to existing methods (Estep, P et al., High throughput solution-based measurement of antibody-antigen affinity and epitope binning. MAbs, 2013.5(2): p. 270-8). In short, the sensor was equilibrated for 30 min under the line of the analysis buffer, and then the baseline was established after online detection for 60 s. The purified antibody obtained as described above was loaded onto the AhQ sensor online. […] Kinetic analysis was performed using a 1:1 binding model.
On the technique in general: BLI is a label-free optical method that tracks binding on a fibre tip over time.
The molecule B1 displayed a Kd of 4.51 nM, a koff of 0.000825 s⁻¹ and a kon of 183000 M⁻¹ s⁻¹.
B2 came in with a Kd of 0.486 nM, a koff of 0.000325 s⁻¹ and a kon of 668000 M⁻¹ s⁻¹.
In the same order, the values of B3 are 5.04 nM, 0.000644 s⁻¹ and 128000 M⁻¹ s⁻¹.
Consider B4, for which binding was put at a Kd of 5.22 nM, the dissociation rate constant (koff) was 0.00106 s⁻¹ and the on-rate constant (kon) was 203000 M⁻¹ s⁻¹.
Consider B5, for which the Kd was found to be 0.566 nM, the koff was 0.000369 s⁻¹ and the kon amounted to 652000 M⁻¹ s⁻¹.
On the same counts, the results for B6 are 5.95 nM, 0.000345 s⁻¹ and 58100 M⁻¹ s⁻¹.
B7: the affinity, expressed as Kd, was 1.93 nM; the koff is 0.000376 s⁻¹; the kon is 195000 M⁻¹ s⁻¹.
On the same counts, the results for B8 are 0.655 nM, 0.000288 s⁻¹ and 440000 M⁻¹ s⁻¹.
Consider B9, for which the Kd came to 3.4 nM, the koff turned out to be 0.000433 s⁻¹ and the kon is 127000 M⁻¹ s⁻¹.
In the same order, the values of B10 are 3.31 nM, 0.00112 s⁻¹ and 339000 M⁻¹ s⁻¹.
On the same counts, the results for B11 are 3.79 nM, 0.00176 s⁻¹ and 463000 M⁻¹ s⁻¹.
In the same order, the values of B12 are 3.58 nM, 0.000334 s⁻¹ and 93300 M⁻¹ s⁻¹.
As to B13, the Kd was 5.69 nM, the koff came out at 0.00146 s⁻¹ and the kon was 256000 M⁻¹ s⁻¹.

For the next assay, the target named is T2, human PD-L1 protein (purchased from AcroBiosystems) (human, UniProt Q9NZQ7 19-238, biotinylated in the blocking assay).
T2 construct: Bought soluble protein; also called PD-L1 antigen; biotinylated human PD-L1 protein
T2 sequence (Q9NZQ7 19-238 limits assumed): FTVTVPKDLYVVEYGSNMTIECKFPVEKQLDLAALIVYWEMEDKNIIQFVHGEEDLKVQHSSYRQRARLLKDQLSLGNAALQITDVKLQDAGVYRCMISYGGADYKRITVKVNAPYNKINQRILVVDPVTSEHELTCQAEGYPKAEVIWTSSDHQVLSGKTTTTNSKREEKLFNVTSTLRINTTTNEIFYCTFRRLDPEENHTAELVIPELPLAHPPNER
The assay is described as follows: BLI (ForteBio), antibody on AHQ sensor, 100 nM PD-L1 antigen, 1:1 model. As to the method: as §1
On to B14, for which the Kd turned out to be 11 nM, the off-rate constant (koff) came to 0.00606 s⁻¹ and the kon came out at 553000 M⁻¹ s⁻¹.
As to B15, binding was put at a Kd of 2.56 nM, the koff amounted to 0.00137 s⁻¹ and the kon was 535000 M⁻¹ s⁻¹.

For the next assay, the target named is T1, human PD-L2 protein (purchased from …). The assay is described as follows: flow cytometry blocking assay: antibody pre-incubated with biotinylated human PD-L2 protein (1 ug/ml), binding of PD-L2 to CHO-hPD-1 cells read as MFI. Here is the method:
CHO cells overexpressing human PD-1 (CHO-hPD-1 cells) were generated by transfection of the pCHO1.0 vector (purchased from Invitrogen™) cloning human PD-1 cDNA (purchased from Sino Biological). The expanded CHO-hPD-1 cells were adjusted to a cell density of 2×10⁶ cells/ml, and were added to 96-well flow plate at 100 μl/well, and centrifuged for later use. The purified mutant sample was diluted with PBS and diluted 3 times from […] for 12 points. […] The co-incubation sample was added to the above-mentioned 96-well flow plate with cells 100 μl/well, incubated at 4° C. for 30 min, and washed twice with PBS. APC goat anti-mouse IgG (minimum×reactive) antibody diluted 100 times with PBS (purchased from Biolegend®) was added at 100 μl/well, incubated at 4° C. for 30 min, and washed twice with PBS. PBS was added at 100 μl/well to resuspend cells, and detection was performed on a CytoFlex (Bechman) flow cytometer and the corresponding MFI was calculated.
In general terms: Flow cytometry measures light scatter and fluorescence of single cells or particles in a stream.
For the molecule B1, the “IC50 (read off the curve)” value is about 2 nM.
With B2, the “IC50 (read off the curve)” value is about 9 nM.
Still for that read-out and setting: with B4 the figure was about 4 nM.
B5: the “IC50 (read off the curve)” value is about 10 nM.
As to B8, the “IC50 (read off the curve)” value is about 30 nM.
Consider B10, for which the “IC50 (read off the curve)” value was about 30 nM.

The next assay addresses T3, human PD-L2 on CHO cells (CHO-hPD-L2 cells) (human, UniProt Q9BQ51 20-273).
T3 construct: whole, on cells; also called CHO-K1-PD-L1/PD-L2
T3 sequence (looked up): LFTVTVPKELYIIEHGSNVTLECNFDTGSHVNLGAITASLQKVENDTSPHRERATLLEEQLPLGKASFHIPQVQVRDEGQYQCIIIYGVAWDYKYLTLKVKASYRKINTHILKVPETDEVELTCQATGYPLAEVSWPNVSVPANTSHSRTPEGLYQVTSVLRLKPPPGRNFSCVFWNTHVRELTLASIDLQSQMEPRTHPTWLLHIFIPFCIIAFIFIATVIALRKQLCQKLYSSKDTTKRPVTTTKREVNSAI
Briefly: flow cytometry on CHO-hPD-L2 cells, PE anti-human IgG-Fc, median fluorescence intensity (MFI). As to the method:
The expanded CHO-hPD-L2 cells were adjusted to a cell density of 2×10⁶ cells/ml, and were added to 96-well flow plate at 100 μl/well, and centrifuged for later use. […] The diluted samples were added to the 96-well flow plate with cells at 100 μl/well, incubated at 4° C. for 30 min, and washed twice with PBS. Goat F(ab')2 anti-human IgG-Fc (PE) (purchased from Abcam) diluted 100 times with PBS was added at 100 μl/well, incubated at 4° C. for 30 min, and washed twice with PBS. PBS was added at 100 μl/well to resuspend cells, and detection was performed on a CytoFlex (Bechman) flow cytometer and the corresponding MFI was calculated.
Regarding B1, the “EC50 (read off the curve)” value is about 20 nM.
B2: the “EC50 (read off the curve)” value was about 50 nM.
B4: the “EC50 (read off the curve)” value is about 50 nM.
As for B5, the “EC50 (read off the curve)” value was about 60 nM.
Still for that read-out and setting: under B13 stands about 70 nM.

The target of another assay is T1, human PD-L2 protein (purchased from …). Briefly: BLI (ForteBio), antibody on AHQ sensor, 100 nM PD-L2 antigen, 1:1 model. This is another data set of the same source. As to the method: as §1
The experimental method was the same as that in Example 1.5.
Consider B7, for which binding was characterised by a dissociation constant (Kd) of 1.93 nM, the koff came to 0.000376 s⁻¹ and the kon came to 195000 M⁻¹ s⁻¹.
B16 showed a Kd of 4.49 nM, a koff of 0.00173 s⁻¹ and an on-rate constant (kon) of 386000 M⁻¹ s⁻¹.
